Results on 22 sequences are retold here after a protein production outcome set (Wang et al. 2014).

The data set can be described thus: label from the status in PepcDB records.
On to “MKLILAPMEGLTDPIMRDVLTHVGSFDWCVTEFIRVTDSVLPDHVYYTYCPELKNNGKTAAGTPVHVQFLGNNPDMLAANAEKVVALGAPAIDLNFGCPAKTVNRHRGGSILLDEPDVVHLLVKAVRDAVPAHIPVSAKMRLGYLDENHTMDNAYAIQEAGANWLTVHARTKADGYTPPAYWEKIQPIKDALSINVIANGEIWTNQDAKACQQQSGCEDLMIGRGAVTTPDLTLCIRQNVDEALMNWAALIELQQRFLNGEYKTEIGMIGRYKQWLGMMTKAYPEAKQLWDEIKRIKNLDEILLKLGRSS”, for which the protein production result is recorded as “failed”.

“MPYTLQHLESEAALAASFDLMRVLRPHLTSPAAYVAQWARQTEQGYRLLAAWDAERIVGLAGYRELENLLYGRFIYVDDLVVSPDLQRSGLGARLLSAVRDEAVQRQCEHFVLDTGLHMPLAQRFYFRQGLLARGMHFTQRLE”: the protein production result is on record as “failed”. The result for “MLYSSDLLAIVGAGEQASLSPRRLCLFKTTTGLPLRELNFLTSILAVRMNKKRLVVVLLEKTFVYDLNTLVMLDTIDTVPNPKGLSAFSPSLEGCYLAVPASTTKGSVLVYNVMDLQSHSEIDAHRSPLAAIALSSNGMYIATGSEQGTLIRVHLVSEATKSYSFRRGTYPSTIYSLSFGPSTQLPDILIATSSSGSIHAFSLSLAINQRSKRSTSFLGSVLPDSVSDALDPAHHHVLQNAVSSGIRSYAVVRKIDKLEGTSSPSHFTSLRATVSVITYNGYFQEYTLSINNKNESLWTLEREFNLFSITTG” reads “failed”; that for “MDFKSSDAIRGPRTEDHLPHTAQAAVKIVIVGGFGVGKTTMVGSVSEIRPLTTEETMTQMGIGVDDNYGSESKTATTVAMDFGRISITEQLVLYLFGTPGQERFWFLWNGLFEGALGAVVLIDTRRLEVSFDVIGRLEERGVPFVIAVNDFPDAPRYPVEDLRGALDLTEDIPIVKCDARRRASSREVLMTLMHFLHSLAVSKTSVLEHHHHHH”, “failed”. In the case of “MLEEVERWLDARSWPAADRPVQHLLSAKHATGQSVSVVLPALDEEATVGDIVSVIRRELVLGVPLVDEIVVVDSGSSDRTSEVAAAAGARVVHRDAILPRIPAVPGKGEVLWRSLLVTGGDIVCFVDADLREFSADFVSGIVGPLLTDPDVHLVKAMYDRPLAGAAGQGGRVTELMARPLLNMHWPQLAGFVQPLGGEYAARRSLLERLPFPVGYGVELGMLVDALHLVGLDALAQVDVGVRVHRHQDGRALGRMAAAIYRTAQLRLARGHLVRPALTQFERGVDGFEPRTYAVDTEERPPMTEIAEYAARKVALEHHHHHH”, the protein production entry is on record as “not failed”. With “MNIKSAFIRKRGEKFYVYVEYIEETTGKIKQKSYGSYEKKKDAEKHLIEIKSTINNNKFVAPKDITFVERCYKYIDMNKNNWSPYTVTSTKSWVKNYIEPFFKNLKLTEVNPSSVQAFVNYNFNNSTFTSAKVRYSFLSSVIREAYRLREIQENSCDFIKLPSKEKYSTNEIYNREEVLLLIEKLLGNNIEIPILLMLLLGLRMGEATGLRWSDVDLDNNLINVNQILVYSNGKISFKEPKTPKSKRALSAPKELIEKLKIEKLRQSKLKLQGILENKNNLVCLNTNLNPFLPSSLRKTFHNFTKKNNLKKIRIHDLRHTSATLLLLGGTNMKVVSERLGHTDIKITMNRYSHVLKEMDKEASDNLSELLFK”, the protein production entry was “failed”.

Turning to “MTIAAAPPSSRFRAVRIWLTLVAALIAVMVLVGGATRLTESGLSIVEWKPVTGSLPPLTDTQWHAAFDGYKQIPQYRELNAGMTLDQFKTIFWWEWSHRLLGRVIGIVYLLPFLWFLWRGAIGPEWKRALWIIFALGALQGAVGWWMVASGLSQRTEVSQVRLATHLSLALIIYAAIVWTLRRMADGARVAAPVRLRVTALALLGLTFVQLYAGALVAGLRAGRLYNTWPEIDGALIPDAARLWFESPWWKNLFDNHLTVQFDHRMLAYALWTLAALHMIDALRTRAAARGAVQLFLALTAQATLGIFTVLYAAPIDLALVHQAMALVVLTLAVLQAERLTATRKDRTARDRGAAGRLAIPSEPFPSA”, the protein production entry is “failed”. The result for “MKRKLLAILLSVSMIATLVTACGSKEVSDNSAKEEGVTVEDVKAALKDENAVVLDARTQDAYAGWSTENNKLGGHIESSSGFSAAWLTCEYDDEANDDNRTREERLEICMEDKGITADTKVIIYDENGKDAAAVSEYLSGKGVKDIETFNLADWDGELVKYENYQTILPPSIVKKLIDGETVEEVGEVKDLKVLEFSWGTEEESGYLEGHVPTAIHINSDDVDDENNIYVLDKDEILLETVKKAGVTVDSTVVVTGAGLFSCHLATILKYLGVEDVYIMSGGANGWTDAGYEAEKGSNTPVAVEDFGTDKPLNPDYIDDVEEVSLLLTDKNAQVIDTRAYKEFTGESSGYSYVEEAGRLNGAIFGQEDGSAQGPDCTGSSMMYYENIDGTMRDASEILEMWSNSNVDVNKHLSFYCGGGYRAAAVMWYAQAMGLEDTSLYNDGWAGWIVYGKDAVKGTYEDPQPVN” reads “failed”. Take “MRTLVAPTHAPKRRMLLALLATPALALAQPAWTQQPPPVKLDVPYVPTPDDAVARMLEMADVTAQDTVIDLGSGDGRIAIAAVRDRGARSAMGVDIDPERIAEARANARKAGLADRVTFVQQDLFDTDISKATVLTMYLLPDVNLKLRPRILNSLAPGTRVVSHAFTMGEWDSDRYELVDGRSLYLWVVPAHAAGDWQVEDPAGPFTLSVRQDFQKVTASAQRQGERLGVAEAALRGTDLRFTVDAGSGPRTYVGRIQGDRMTAVQAPGNESGWRATRRAP”: the protein production entry is listed as “failed”. The result for “DYPIMIICPGGGFTYHSGREEAPIATRMMAAGMHTVVLNYQLIVGDQSVYPWALQQLGATIDWITTQASAHHVDCQRIILAGFSAGGHVVATYNGVATQPELRTRYHLDHYQGQHAAIILGYPVIDLTAGFPTTSAARNQITTDARLWAAQRLVTPASKPAFVWQTATDESVPPINSLKYVQAMLQHQVATAYHLFGSGIHGLALANHVTQKPGKDKYLNDQAAIWPQLALRWLQE” reads “failed”; that for “MKKKDMNKQVKIQDAVAAIILAEGPAGVSTTKVAKRVGIAQSNVYLYFKNKQALIDSVYARETNRILSTTDLDRLSDSTIDVTTRIRLYVQQVYDYSLANPDSLTIIQQIKALNGQGMTISAADADPNNIVANLLTAAIDAKVIKQLPVSLHMGVVFSTIHTHTTNISKGRYAQDQYTFGDIFQMIWDAMKQD”, “not failed”; that for “MASLRVACVIPTYNGRKDLERLLDSLATQTASFDTLIVDSSSSDGTLELAQARCANVLRIDSKDFNHGGTRQMMVDVHPDYDVYVYMTQDAYVEDIDAIANILLPFADPKVGAVCGRQLPHKNANLLAQHARLFNYPPTSQIKTLADAGTLGIKTPFMSNSFAAYRGEALRAIGGFPRHVILSEDMYVTAKMLIDGWKVAYEGSAVCRHSHNYSLREEFCRYFDIGVFQSREAWIYETFGGIGGEGMRYVKSELKFLGPRRLLWWPMSFVRNALKLLAYKLSKQEKRLPRGLKKKLGMYKRYWDSPYA”, “failed”. The result for “MKILNIFDAVRDGTFQDFKNFYEGNINVISGNLDLNLLCMAVTNDKNPEEKLQIIKFLFAEGIDVNYATQKEKRNALHLFYFCVLRPTIEYEMEITNLFIKHGVNVNATDKYNAIPLKYAITINNLPTSDNKEMYQLLLNKGSDYNLKDGFGKSCLDYAKEYSWRNDFLDIVKEYENSKK” reads “failed”; that for “YTEPQIDDTNDGIVFSELTHPLIADAVANDFSLSQNILLTGSNASGKSTFMKSIAINIILASAIQTVTASKFVYQPGIVFTSMANADDVLSGDSYFMAELKSIKRIVEIPDNQKIYCFIDEIFKGTNTTERIAASESVLSFLHEKSNFRVIAATHDIELAELLKQRYENYHFNEVIENNNIHFDYKIKPGKANTRNAIELLKITSFPAKIYERAKDNVSN”, “failed”; that for “MSDIELLETLAGTDQPRVMATIIHVEGSSYRKEGAMMLFQEDGTQVGLLSGGCLETDLTIKAQKVWQEQLPRTVVYDLSSEDDLSWGQGSGCNGTISVLLEPVDLKLRQHLKRVYDYLCAGKSVFHVKKLSTSGAVLEYAFILDESVYFGEWHSGHPVEWIRKIDENEEPLMFTHIYSPKERLIIFGAGPDVPPLVTFASNVGFYTVVTDWRPNQCEKHFFPDADEIIVDFPADFLRKFLIRPDDFVLIMTHHFQKDQEILHFLLEKELRYIGILGSKERTRRLLQNRKPPDHLYSPVGLSIDAQGPEEIAISIVAQLIQLIRSRKQASSPFSYLFQPESCKH”, “not failed”. The result for “MGAVVVEPGSSSMVLGPEQVLDRASMHLANGLLGNPDSAAGLEVLLGGLKLRFVSGSAVAVTGAEGMVTLDGTELPLNKAVRVPPGAVLELGPAMFGIRYYLAVQGGISAQGEAAQGEAIRAGAALTFGRPNNHGSPEVNHPARRALDPERPVVARVSRGPQAQNDDAGTWLRLTSEPWILSPESDRAGARLVGRPLDVTSAPIPQAQPLVSGSVLLPSSGLPVIALAGHPDTSQSPVIAVVRDEDLDVLGQARPGQMVHLLG” reads “failed”. Turning to “MNSYPLISVIMSVYKEEREWLVSSIQSILDQTVSDFEFIIILDFPNSELLKTLKDFEKKDSRIIIYQNEKNVGLVESLNTALSFSRGKYIARMDADDISHKNRFEKQLKYITLNNLDLVGGNVNIFHSNKGIYNTTDKVQSDYFLCKLLKIGTIGIVHPTFFSKRNVYDTIGGYYHAECAEDLELLMRANLNGFKIGNIPDVILDCRYSEKSITKENAYFMFCTVKYLKSLYRSSLKSGDYKFNSNYIELYLYDENNKLAFSEKQNLMSEARHSFNEKKYISFLINLIKSILISRTVFFSIKVNVMSFLFRKVEVKIPKVLLACIKIKLQLEHHHHHH”, the protein production entry is listed as “not failed”. “MTKFYKFLISIIILALVCLIFFLAKSNILNLDSLKNLILSSGYFAPLIYIIAFALVPLTFFPDSILAILGGSIFGLGGGFLYTSIGALIGGSISFFISRILGQSFVEKFENDKLKNIQELLKDNGFLMILLLRLIPLFPFDLISYGAGLTKISYKDFALGTLIGTIPGILVFVNLGAQWITFNKTSIYLSVSLLILFIIVSVFLKKIYINKHLAKGN”: the protein production result is reported as “failed”.

For the sequence “MRTERWWQDTSVTDHLFRQFGRFEFIQATRLLRHVPYHMDQTQWASEFQFGSSLALSFPKTEIEHLAQSDERIEMTSLVVGLTGTQGALPYTYTNKLKQSSRQQRREIQAFLGLFNHTLTVQYVDASLVHHLPVRYEVEQENHYLNILHALNGYISSHHQHNELDEYFAEFAGLMQGQNNTAHALTTMLTCIFKQKVMVKEFIREKFYLSDEQKTCLGGAQPSLLGINTFCGDTIEQIDGKIEIQIGPLKRKQYLDFLPSGRASTQLKHILATWCSPTLLVDLRLILDQDDVQPFCLDSVHQMGLGQGVFLTSQASNQDNQDTCYSLIGAVA”, the protein production entry is on record as “failed”. The same measure for “MNSGRPETMENLPALYTIFQGEVAMVTDYGAFIKIPGCRKQGLVHRTHMSSCRVDKPSEIVDVGDKVWVKLIGREMKNDRIKVSLSMKVVNQGTGKDLDPNNVIIE”: “not failed”. The same measure for “MRICLFLCLCLCMASPALAQVAVFPALSGKTDAQTLVVYSSLDEPLATPMIEGFQKANPDIAVHYEDMLTGEIYDRIVKETDAGKKTADFAFSSAMDLQVKLSNDGYAQRSDLAMSARWPAWANWRNTAYALTFEPAVFVYHKPSFTTEKPPATRAEFVDYLERHAKEVHGRIATYDIERSGVGFLFMSRDQEQFGDIWSVIKAMGAAGVKVYSTSSAILERVSDGRFVLGYNILGSYAADWASRHPDVGIVLPKDYTVVMSRIGLVPEAAANPELGRRYLEFFMSKEGQTIMARQLQIPAVSPEVAGENTANTMQAIHGAQLRPVPVSPGLMVYLDQVKRSR”: “not failed”; for “MGTAMRSVAWGLAIALWPIAVWAENPEDLQRLLTTRQCERCDLQDSGLVLARLSGARLTGSNLQRANLSGADLSGADLRQTDLRGASLQRANLAGANLTGARLDGVDLREAWLTEAILTPQQLALAHIQGAQGLDVTALPFERYQAWGIEAIQAGRFERAISYFDLALQRNPKSASTYLSRAIAYQGLGRSEQAIADAQAAEQLYKSQQNPEGEKRSQELRTTIVAAQERVASSGSNGGNGGGSAALAVLTGIVQGVLPFLLGFPF”: “failed”.
